Results from patent US20050106141A1 (PROCTER AND GAMBLE, published 2005).

B1: Homo Sapiens Ubiquitous Receptor (receptor, UniProt P55055 1-460, looked up, not shown: large carriers)
chain: MSSPTTSSLDTPLPGNGPPQPGAPSSSPTVKEEGPEPWPGGPDPDVPGTDEASSACSTDWVIPDPEEEPERKRKKGPAPKMLGHELCRVCGDKASGFHYNVLSCEGCKGFFRRSVVRGGARRYACRGGGTCQMDAFMRRKCQQCRLRKCKEAGMREQCVLSEEQIRKKKIRKQQQESQSQSQSPVGPQGSSSSASGPGASPGGSEAGSQGSGEGEGVQLTAAQELMIQQLVAAQLQCNKRSFSDQPKVTPWPLGADPQSRDARQQRFAHFTELAIISVQEIVDFAKQVPGFLQLGREDQIALLKASTIEIMLLETARRYNHETECITFLKDFTYSKDDFHRAGLQVEFINPIFEFSRAMRRLGLDDAEYALLIAINIFSADRPNVQEPGRVEALQQPYVEALLSYTRIKRPQDQLRFPRMLMKLVSLRTLSSVHSEQVFALRLQDKKLPPLLSEIWDVHE
notes: Prey clone; also called Oxysterols Receptor LXR-Beta; LXR
B2: Homo Sapiens Protein Inhibitor of Activated STAT-1 (PIAS1) (other, UniProt O75925 1-651, looked up, not shown: large carriers)
chain: MADSAELKQMVMSLRVSELQVLLGYAGRNKHGRKHELLTKALHLLKAGCSPAVQMKIKELYRRRFPQKIMTPADLSIPNVHSSPMPATLSPSTIPQLTYDGHPASSPLLPVSLLGPKHELELPHLTSALHPVHPDIKLQKLPFYDLLDELIKPTSLASDNSQRFRETCFAFALTPQQVQQISSSMDISGTKCDFTVQVQLRFCLSETSCPQEDHFPPNLCVKVNTKPCSLPGYLPPTKNGVEPKRPSRPINITSLVRLSTTVPNTIVVSWTAEIGRNYSMAVYLVKQLSSTVLLQRLRAKGIRNPDHSRALIKEKLTADPDSEIATTSLRVSLLCPLGKMRLTIPCRALTCSHLQCFDATLYIQMNEKKPTWVCPVCDKKAPYEHLIIDGLFMEILKYCTDCDEIQFKEDGTWAPMRSKKEVQEVSASYNGVDGCLSSTLEHQVASHHQSSNKNKKVEVIDLTIDSSSDEEEEEPSAKRTCPSLSPTSPLNNKGILSLPHQASPVSRTPSLPAVDTSYINTSLIQDYRHPFHMTPMPYDLQGLDFFPFLSGDNQHYNTSLLAAAAAAVSDDQDLLHSSRFFPYTSSQMFLDQLSAGGSTSLPTTNGSSSGSNSSLVSSNSLRESHSHTVTNRSSTDTASIFGIIPDIISLD
notes: Prey clone; extent of the clone unknown; also called AD-IP; AF167160
B3: Homo Sapiens DEAD (Asp-Glu-Ala-Asp) box polypeptide 3 (enzyme, UniProt O00571 1-662, looked up, not shown: large carriers)
chain: MSHVAVENALGLDQQFAGLDLNSSDNQSGGSTASKGRYIPPHLRNREATKGFYDKDSSGWSSSKDKDAYSSFGSRSDSRGKSSFFSDRGSGSRGRFDDRGRSDYDGIGSRGDRSGFGKFERGGNSRWCDKSDEDDWSKPLPPSERLEQELFSGGNTGINFEKYDDIPVEATGNNCPPHIESFSDVEMGEIIMGNIELTRYTRPTPVQKHAIPIIKEKRDLMACAQTGSGKTAAFLLPILSQIYSDGPGEALRAMKENGRYGRRKQYPISLVLAPTRELAVQIYEEARKFSYRSRVRPCVVYGGADIGQQIRDLERGCHLLVATPGRLVDMMERGKIGLDFCKYLVLDEADRMLDMGFEPQIRRIVEQDTMPPKGVRHTMMFSATFPKEIQMLARDFLDEYIFLAVGRVGSTSENITQKVVWVEESDKRSFLLDLLNATGKDSLTLVFVETKKGADSLEDFLYHEGYACTSIHGDRSQRDREEALHQFRSGKSPILVATAVAARGLDISNVKHVINFDLPSDIEEYVHRIGRTGRVGNLGLATSFFNERNINITKDLLDLLVEAKQEVPSWLENMAYEHHYKGSSRGRSKSSRFSGGFGARDYRQSSGASSSSFSSSRASSSRSGGGGHGSSRGFGGGGYGGFYNSDGYGGNYNSQGVDWWGN
notes: Prey clone; extent of the clone unknown; also called Homo Sapiens DEAD/H (Asp-Glu-Ala-Asp/His) Box Polypeptide 3; AD-IP
B4: Homo Sapiens Similar to Stromal Antigen 2 (other, UniProt Q8N3U4 1-1231, looked up, not shown: large carriers)
chain: MIAAPEIPTDFNLLQESETHFSSDTDFEDIEGKNQKQGKGKTCKKGKKGPAEKGKGGNGGGKPPSGPNRMNGHHQQNGVENMMLFEVVKMGKSAMQSVVDDWIESYKHDRDIALLDLINFFIQCSGCKGVVTAEMFRHMQNSEIIRKMTEEFDEDSGDYPLTMAGPQWKKFKSSFCEFIGVLVRQCQYSIIYDEYMMDTVISLLTGLSDSQVRAFRHTSTLAAMKLMTALVNVALNLSINMDNTQRQYEAERNKMIGKRANERLELLLQKRKELQENQDEIENMMNAIFKGVFVHRYRDAIAEIRAICIEEIGIWMKMYSDAFLNDSYLKYVGWTMHDKQGEVRLKCLTALQGLYYNKELNSKLELFTSRFKDRIVSMTLDKEYDVAVQAIKLLTLVLQSSEEVLTAEDCENVYHLVYSAHRPVAVAAGEFLYKKLFSRRDPEEDGMMKRRGRQGPNANLVKTLVFFFLESELHEHAAYLVDSMWDCATELLKDWECMNSLLLEEPLSGEEALTDRQESALIEIMLCTIRQAAECHPPVGRGTGKRVLTAKEKKTQLDDRTKITELFAVALPQLLAKYSVDAEKVTNLLQLPQYFDLEIYTTGRLEKHLDALLRQIRNIVEKHTDTDVLEACSKTYHALCNEEFTIFNRVDISRSQLIDELADKFNRLLEDFLQEGEEPDEDDAYQVLSTLKRITAFHNAHDLSKWDLFACNYKLLKTGIENGDMPEQIVIHALQCTHYVILWQLAKITESSSTKEDLLRLKKQMRVFCQICQHYLTNVNTTVKEQAFTILCDILMIFSHQIMSGGRDMLEPLVYTPDSSLQSELLSFILDHVFIEQDDDNNSADGQQEDEASKIEALHKRRNLLAAFCKLIVYTVVEMNTAADIFKQYMKYYNDYGDIIKETMSKTRQIDKIQCAKTLILSLQQLFNEMIQENGYNFDRSSSTFSGIKELARRFALTFGLDQLKTREAIAMLHKDGIEFAFKEPNPQGESHPPLNLAFLDILSEFSSKLLRQDKRTVYVYLEKFMTFQMSLRREDVWLPLMSYRNSLLAGGDDDTMSVISGISSRGSTVRSKKSKPSTGKRKVVEGMQLSLTEESSSSDSMWLSREQTLHTPVMMQTPQLTSTIMREPKRLRPEDSFMSVYPMQTEHHQTPLDYNRRGTSLMEDDEEPIVEDVMMSSEGRIEDLNEGMDFDTMDIDLPPSKNRRERTELKPDFFDPASIMDESVLGVSMF
notes: Prey clone; also called AD-IP; BC001765
B5: BD-VDR(mouse) (receptor, UniProt P04386 1-147, looked up)
chain: MKLLSSIEQACDICRLKKLKCSKEKPKCAKCLKNNWECRYSPKTKRSPLTRAHLTEVESRLERLEQLFLLIFPREDLDMILKMDSLQDIKALLTGLFVQDNVNKDAVTDRLASVETDMPLTLRQHRISATSSSEESSNKGQRQLTVSMEAMAASTSLPDPGDFDRNVPRICGVCGDRATGFHFNAMTCEGCKGFFRRSMKRKALFTCPFNGDCRITKDNRRHCQACRLKRCVDIGMMKEFILTDEEVQRKREMIMKRKEEEALKDSLRPKLSEEQQHIIAILLDAHHKTYDPTYADFRDFRPPIRADVSTGSYSPRPTLSFSGDSSSNSDLYTPSLDMMEPASFSTMDLNEEGSDDPSVTLDLSPLSMLPHLADLVSYSIQKVIGFAKMIPGFRDLTSDDQIVLLKSSAIEVIMLRSNQSFTLDDMSWDCGSQDYKYDITDVSRAGHTLELIEPLIKFQVGLKKLNLHEEEHVLLMAICIVSPDRPGVQDAKLVEAIQDRLSNTLQTYIRCRHPPPGSHQLYAKMIQKLADLRSLNEEHSKQYRSLSFQPENSMKLTPLVLEVFGNEIS

What was measured:
LexA BD-HRt = target: T1, LexA BD-HRt (mouse, UniProt P0A7C2 1-202; Q61645 490-1182); assay: yeast two-hybrid library screen; number of positive clones with this identity
T1 construct: domain: Lex A DNA BD;range 490-1182; also called BD-HRt(mouse); Lex A DNA BD-HRt
T1 sequence (looked up): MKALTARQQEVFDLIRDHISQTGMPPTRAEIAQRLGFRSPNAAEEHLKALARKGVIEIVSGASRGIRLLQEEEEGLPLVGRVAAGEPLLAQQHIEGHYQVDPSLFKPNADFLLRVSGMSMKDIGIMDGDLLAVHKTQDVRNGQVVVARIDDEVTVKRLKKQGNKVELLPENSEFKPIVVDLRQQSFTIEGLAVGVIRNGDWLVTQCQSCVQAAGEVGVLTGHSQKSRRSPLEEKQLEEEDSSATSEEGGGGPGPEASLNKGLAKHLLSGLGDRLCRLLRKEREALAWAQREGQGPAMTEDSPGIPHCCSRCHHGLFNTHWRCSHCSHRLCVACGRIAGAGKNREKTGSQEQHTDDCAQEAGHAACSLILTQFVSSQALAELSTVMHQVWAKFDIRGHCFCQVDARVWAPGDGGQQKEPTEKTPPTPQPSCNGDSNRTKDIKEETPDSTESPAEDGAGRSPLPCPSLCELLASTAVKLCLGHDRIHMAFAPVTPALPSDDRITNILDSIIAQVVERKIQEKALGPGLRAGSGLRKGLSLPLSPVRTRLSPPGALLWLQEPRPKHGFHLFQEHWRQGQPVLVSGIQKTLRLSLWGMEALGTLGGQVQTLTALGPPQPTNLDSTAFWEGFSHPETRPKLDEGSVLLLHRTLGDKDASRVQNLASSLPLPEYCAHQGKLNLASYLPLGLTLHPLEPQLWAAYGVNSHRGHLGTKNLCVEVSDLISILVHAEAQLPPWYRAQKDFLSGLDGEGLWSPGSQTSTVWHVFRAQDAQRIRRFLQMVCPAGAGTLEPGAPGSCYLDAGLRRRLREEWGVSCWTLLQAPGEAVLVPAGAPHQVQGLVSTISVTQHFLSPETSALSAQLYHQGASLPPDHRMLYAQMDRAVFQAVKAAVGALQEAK
Excerpt: Clontech Human Keratinocyte GAL4 cDNA library (complexity 2.5×10⁶) in pACT2 vector was used used to screen for HRt interacting proteins. A Leu⁻, Trp⁻ yeast strain with HIS3 and LACZ reporters for yeasts two hybrid interaction (strain L41) was first transformed with LexA BD-HRt palsmid) for Trp⁺ phenotype. The resulting L41/LexA BD-HR transformant was screened to ensure expression of LexA BD-HRt protein and also for lack of auto activation of the reporter genes HIS3 and LACZ. This strain was transformed with Keratinocyte AD-cDNA library and plated on Trp⁻Leu⁻His⁻ plate to select for clones with positive interaction. Colonies that appeared on selsctive plates were subsequently tested for LACZ expression on X-GAL plates. […] AD-plasmid was rescued from the 90 clones and retested for HRt bait dependance. […] The positive clones are expected to contain an AD-IP (interacting partner) that interacts with BD-HRt.

AD-TRβ = AD-TRβ (UniProt P04386 768-881); assay: cell-based or functional assay
AD-HRt(mouse) = target: T2, AD-HRt(mouse) (mouse, UniProt Q61645 490-1182); assay: cell-based or functional assay
T2 sequence (looked up): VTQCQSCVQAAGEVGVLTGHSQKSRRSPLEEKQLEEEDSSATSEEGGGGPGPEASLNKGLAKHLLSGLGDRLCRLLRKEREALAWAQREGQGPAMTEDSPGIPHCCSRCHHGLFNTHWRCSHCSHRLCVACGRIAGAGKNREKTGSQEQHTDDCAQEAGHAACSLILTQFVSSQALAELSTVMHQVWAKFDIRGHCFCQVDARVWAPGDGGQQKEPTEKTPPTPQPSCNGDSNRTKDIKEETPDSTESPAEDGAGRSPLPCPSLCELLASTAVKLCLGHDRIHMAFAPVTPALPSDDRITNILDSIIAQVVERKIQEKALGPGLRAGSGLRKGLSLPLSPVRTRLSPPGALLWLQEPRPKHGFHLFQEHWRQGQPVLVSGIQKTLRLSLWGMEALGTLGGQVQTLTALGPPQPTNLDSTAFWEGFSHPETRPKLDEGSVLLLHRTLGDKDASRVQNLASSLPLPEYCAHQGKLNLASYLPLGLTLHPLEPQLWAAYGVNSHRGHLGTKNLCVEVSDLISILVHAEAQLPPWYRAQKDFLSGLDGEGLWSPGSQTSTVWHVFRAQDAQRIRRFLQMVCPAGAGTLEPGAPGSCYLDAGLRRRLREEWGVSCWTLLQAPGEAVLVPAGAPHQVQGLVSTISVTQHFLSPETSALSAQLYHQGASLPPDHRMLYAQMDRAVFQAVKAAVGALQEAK

Sequence of AD-TRβ (P04386 768-881): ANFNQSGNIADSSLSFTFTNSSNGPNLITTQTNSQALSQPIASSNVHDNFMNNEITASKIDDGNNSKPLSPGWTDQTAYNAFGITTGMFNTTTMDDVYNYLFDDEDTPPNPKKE

| Binder | Hits (LexA BD-HRt) | yeast two-hybrid reporter with 25 HC (AD-TRβ) [fold] | relative alpha-galactosidase activity (yeast two-hybrid reporter, assay of example 3) with 1alpha, 25-dihydroxy cholecalciferol (25 DHC) at sub-micromolar concentrations (AD-HRt(mouse)) [fold] | relative alpha-galactosidase activity (yeast two-hybrid reporter, assay of example 3) with 25-hydroxy cholecalciferol (25 HC) at sub-micromolar concentrations (AD-HRt(mouse)) [fold] |
| --- | --- | --- | --- | --- |
| B1 | 14 | – | – | – |
| B2 | 1 | – | – | – |
| B3 | 2 | – | – | – |
| B4 | 4 | – | – | – |
| B5 | – | ~2 | > 3 | > 3 |
